Test results: publication PMC4515589, “In vitro analysis of phosphorothioate modification of DNA reveals substrate recognition by a multiprotein complex” (Scientific Reports, 2015)

Target: the molecule itself
Test: SEC + other: densitometry of SDS-PAGE bands; ~600 kDa gel filtration fraction of the DptC/D/E complex resolved on Coomassie-stained SDS-PAGE, bands quantified by ImageJ and normalised by molecular mass; copy number worked out from the ~600 kDa mass and the equimolar amounts

| Protein | stoichiometry N |
| --- | --- |
| DptC with N-terminal His-tag (S. enterica serovar Cerro 87) (enzyme, DptC, phosphorothioate-modifying protein of Salmonella enterica serovar Cerro 87; coding region of the dptC/D/E operon amplified from genomic DNA; the upstream primer begins at the ATG of dptC; also called His-Tag labeled DptC; labelled DptC; source: E. coli BL21 (DE3), co-overexpressed with DptD and DptE from pET-28a(+); in lysate, then purified (nickel HiTrap chelating column, Superdex gel …)) MSKLVQAYDLAEYEDFINQEQFAGRPLAEYVAEVQRIYCADKRPWVIGYSGGKDSSAVITLVYLALLGLPPEMRSKDVFIVSSDTLVETPVVVDLIKKTMLQIEAGAKRNGLPITQHAVTPKTNETFWVNLLGKGYPAPTRSFRWCTERMKINPVSDFIKDKVSQFDEVIVVLGSRSSESASRAQVIAKHKIDGSRLARHTTLANAFIYTPIDTWDVEDVWKLLRGAFRYAPEDIDEWESPWGGNNRPLWTLYMDSSAQGECPLVIDESTPSCGNSRFGCWTCTVVTKDKAMESLIKNGEEWMSPLLKYRDLLAFTTDPANKDTYRNYKRRTGKVSYQYAKDGEDRSAERKHVPGPYWLKYRQQWLKDLLEIERDLNAQGHTITLITQPELHAIRQEWLKDPNEPDWHDTLPEIYREVYQQDLNWVVDDQSRFDASDADLLAQITQGFDVVPEMVMKLIELETSMEGLSRRQGIFDKLGTILKQDWGSLEEIQQQQATLQKRNDRDIHQDEVEKLEAELQTLQRRIIDAGESSVLIDEENERAH | 4 |
| DptD (S. enterica serovar Cerro 87) (enzyme, DptD (77 kDa), phosphorothioate-modifying protein of Salmonella enterica serovar Cerro 87; expressed from the coding region of the dptC/D/E operon; also called PT-modifying protein D; source: E. coli BL21 (DE3), co-overexpressed with His-DptC and DptE from pET-28a(+); in lysate, then co-purified with His-DptC (nickel column, gel filtration)) MRANRLCLSMRKMNVLIKQLVLHNFRVFCGTHTIDLAPRKRPHEVNPRPIVLFGGLNGAGKTSILSAIRLALYGRLAFGPAMQQQEYVEQLGALVHNGTYTAERPDEAAVELTFTYNQNGHETEFTVTRSWKKGKKDRLSLQQDGQPRSELSYDQCQGFLNELIPHGVADLFFFDGEKIAELAEDESGNILRTAVRRLLGLDLIARLQNDLMIFIKRQQTAQLGGSQQQQVEALEAKIKTLAGQAEKLLEEADFVNSRIEFLSQDIIRHEGLLNAQGGAFAQTKAQEKQKVETLLKEKERLEKALRQECDGSLPYALAPNTLSRLLEKIANEAQIKQAKIFETELNQFLTQLKNDIAFRSSSESSTRAIATEAITNNLDAYMATKPKGDLLFDISEREAGMLQQSIEQDSKKAWQRFDMYRHQLADIEQQLEQAAANIARAPEDEQLMDLFAALRDLDHKREKQRQKYRSLLEEAKRTKQQQLDCVRQVQKAHDITRSQHGLSSAFKNAQETINLLDYYSNVLTQARVKKLSANFEIAYHKLARKEDLQLNAHINPQTFDVELVDEKGSVINRKLLSAGEKQIYAIAILEALAKTSGRDFPVIIDTPLGRLDSQHRDKLINHYFPEASHQVVLLSTDTEVDERYFVDRLRDDISHAYEIVFNAHTKSSALKPGYFWELTKEAV | 4 |
| DptE (S. enterica serovar Cerro 87) (natural protein, DptE (13 kDa), phosphorothioate-modifying protein of Salmonella enterica serovar Cerro 87; expressed from the coding region of the dptC/D/E operon; also called PT-modifying protein E; source: E. coli BL21 (DE3), co-overexpressed with His-DptC and DptD from pET-28a(+); in lysate, then co-purified with His-DptC (nickel column, gel filtration)) MLPNRMVLSRQTEDQLKKLKGYTGITPNVAARLAFFRSVESEFRYSPERDSKKLDGSLVLDKITWLGETLQATELVLKMLYPQLEQKILIKAWAAHVDDGIAALRNYRSLKDFSKNI | 4 |
